Assay results: publication doi:10.1101/2023.07.03.547593 (bioRxiv, 2023)

Tests used:
[1] = target: the molecule itself; assay: cryo-EM structure
[2] = target: the molecule itself; assay: SEC

Protein	binding result [1]	stoichiometry N [2]
nuclease-deactivated AsCas12f1 variant (D225A) (enzyme) MIKVYRYEIVKPLDLDWKEFGTILRQLQQETRFALNKATQLAWEWMGFSSDYKDNHGEYPKSKDILGYTNVHGYAYHTIKTKAYRLNSGNLSQTIKRATDRFKAYQKEILRGDMSIPSYKRDIPLDLIKENISVNRMNHGDYIASLSLLSNPAKQEMNVKRKISVIIIVRGAGKTIMDRILSGEYQVSASQIIHDDRKNKWYLNISYDFEPQTRVLDLNKIMGIALGVAVAVYMAFQHTPARYKLEGGEIENFRRQVESRRISMLRQGKYAGGARGGHGRDKRIKPIEQLRDKIANFRDTTNHRYSRYIVDMAIKEGCGTIQMEDLTNIRDIGSRFLQNWTYYDLQQKIIYKAEEAGIKVIKIDPQYTSQRCSECGNIDSGNRIGQAIFKCRACGYEANADYNAARNIAIPNIDKIIAESIK	binds	
Acidibacillus sulfuroxidans Cas12f1, wild type (enzyme) MIKVYRYEIVKPLDLDWKEFGTILRQLQQETRFALNKATQLAWEWMGFSSDYKDNHGEYPKSKDILGYTNVHGYAYHTIKTKAYRLNSGNLSQTIKRATDRFKAYQKEILRGDMSIPSYKRDIPLDLIKENISVNRMNHGDYIASLSLLSNPAKQEMNVKRKISVIIIVRGAGKTIMDRILSGEYQVSASQIIHDDRKNKWYLNISYDFEPQTRVLDLNKIMGIDLGVAVAVYMAFQHTPARYKLEGGEIENFRRQVESRRISMLRQGKYAGGARGGHGRDKRIKPIEQLRDKIANFRDTTNHRYSRYIVDMAIKEGCGTIQMEDLTNIRDIGSRFLQNWTYYDLQQKIIYKAEEAGIKVIKIDPQYTSQRCSECGNIDSGNRIGQAIFKCRACGYEANADYNAARNIAIPNIDKIIAESIK		2
